# Results: patent US20060029667A1 (RUTGERS THE STATE UNIVERSITY OF NEW JERSEY, published 2006)
# Non-standard residues stand in square brackets, D forms with d. No end group written: not given here. *: point of attachment. Biotin = O=C1N[C@H]2[C@H](CS[C@H]2CCCCC(=O)*)N1
# T1: human sodium dependent multivitamin transporter, hSMVT (human, UniProt Q9Y289 1-635)
# T1 sequence (looked up): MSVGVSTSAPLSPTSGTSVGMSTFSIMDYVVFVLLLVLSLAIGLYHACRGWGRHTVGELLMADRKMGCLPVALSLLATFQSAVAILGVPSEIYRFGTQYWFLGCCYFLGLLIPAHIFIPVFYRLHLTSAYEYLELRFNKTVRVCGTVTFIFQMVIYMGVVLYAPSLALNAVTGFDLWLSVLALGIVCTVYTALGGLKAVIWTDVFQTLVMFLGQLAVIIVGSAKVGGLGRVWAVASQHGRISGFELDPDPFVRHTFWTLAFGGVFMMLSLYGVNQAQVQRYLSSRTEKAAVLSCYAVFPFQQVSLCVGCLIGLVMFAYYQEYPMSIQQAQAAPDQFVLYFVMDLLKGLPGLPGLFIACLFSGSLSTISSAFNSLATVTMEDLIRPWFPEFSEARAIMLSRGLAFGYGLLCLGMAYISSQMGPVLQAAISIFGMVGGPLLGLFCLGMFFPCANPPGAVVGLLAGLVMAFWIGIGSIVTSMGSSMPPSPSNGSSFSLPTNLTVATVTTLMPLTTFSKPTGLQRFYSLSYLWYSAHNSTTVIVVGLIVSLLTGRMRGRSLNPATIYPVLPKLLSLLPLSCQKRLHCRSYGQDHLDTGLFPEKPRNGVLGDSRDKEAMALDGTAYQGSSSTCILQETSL
# What was measured:
# [1] = target: high affinity formyl methionine receptor (fMLF receptor) on differentiated HL-60 cells (human) (UniProt P21462); assay: cell-based or functional assay
# Chain of high affinity formyl methionine receptor (fMLF receptor) on differentiated HL-60 cells (human) (P21462 whole entry): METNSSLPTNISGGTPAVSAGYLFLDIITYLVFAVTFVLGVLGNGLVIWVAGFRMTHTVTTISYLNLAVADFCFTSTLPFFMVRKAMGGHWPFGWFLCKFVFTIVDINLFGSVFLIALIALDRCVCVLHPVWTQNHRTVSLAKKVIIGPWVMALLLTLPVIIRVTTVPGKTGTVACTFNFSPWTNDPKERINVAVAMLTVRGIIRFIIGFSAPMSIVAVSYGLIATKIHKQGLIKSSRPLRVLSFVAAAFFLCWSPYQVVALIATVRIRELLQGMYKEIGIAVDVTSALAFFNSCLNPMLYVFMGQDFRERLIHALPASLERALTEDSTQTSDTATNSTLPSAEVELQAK
# [2] = target: high affinity formyl methionine receptor (fMLF receptor) on differentiated HL-60 cells (human) (UniProt P21462); assay: radioligand binding to DMSO-differentiated HL-60 cells
# [3] = target: T1, human sodium dependent multivitamin …; assay: cell-based or functional assay
molecule,measurement,setting,value
N-formyl-methionine-leucine-phenylalanine (fMLF) peptide,"Cell Activation EC50 (calcium release from intracellular stores, differentiated HL-60 cells)",[1],4.7 nM
fML[3H]F (peptide),specific binding as percent of total binding,[2],75%
[dK](Biotin)[dR][dR][dR][dQ][dR][dR][dK][dK][dR]-NH2 (not fully specified (N-terminus)) [RI-K(biotin)-Tat9],uptake in CHO/hSMVT cells relative to RI-K-Tat9 (at 10 µM),[3],~500 fold
